# Laboratory results taken from patent US20060121489.
# Assays:
# [1] = target: NF-kB p65 (RelA) homodimer (UniProt Q04206); assay: EMSA; details: 1:1 stoichiometry of p65 to the 22-mer site
# [2] = target: NF-kB p50 homodimer (UniProt P19838); details: quoted in comparison with XBY-6
# Sequence of NF-kB p50 homodimer (P19838 1-433): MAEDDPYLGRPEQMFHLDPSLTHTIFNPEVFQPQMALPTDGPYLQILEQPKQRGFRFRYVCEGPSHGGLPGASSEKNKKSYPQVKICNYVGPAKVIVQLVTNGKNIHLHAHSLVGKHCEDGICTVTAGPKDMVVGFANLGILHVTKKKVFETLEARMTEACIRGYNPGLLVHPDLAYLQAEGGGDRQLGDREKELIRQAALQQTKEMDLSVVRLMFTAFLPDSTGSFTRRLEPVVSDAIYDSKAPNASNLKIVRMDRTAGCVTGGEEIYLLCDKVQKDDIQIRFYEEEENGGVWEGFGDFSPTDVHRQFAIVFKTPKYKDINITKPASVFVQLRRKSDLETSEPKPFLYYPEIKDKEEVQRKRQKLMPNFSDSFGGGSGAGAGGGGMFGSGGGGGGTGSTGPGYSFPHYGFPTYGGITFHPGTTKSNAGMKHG
# Sequence of NF-kB p65 (RelA) homodimer (Q04206 whole entry): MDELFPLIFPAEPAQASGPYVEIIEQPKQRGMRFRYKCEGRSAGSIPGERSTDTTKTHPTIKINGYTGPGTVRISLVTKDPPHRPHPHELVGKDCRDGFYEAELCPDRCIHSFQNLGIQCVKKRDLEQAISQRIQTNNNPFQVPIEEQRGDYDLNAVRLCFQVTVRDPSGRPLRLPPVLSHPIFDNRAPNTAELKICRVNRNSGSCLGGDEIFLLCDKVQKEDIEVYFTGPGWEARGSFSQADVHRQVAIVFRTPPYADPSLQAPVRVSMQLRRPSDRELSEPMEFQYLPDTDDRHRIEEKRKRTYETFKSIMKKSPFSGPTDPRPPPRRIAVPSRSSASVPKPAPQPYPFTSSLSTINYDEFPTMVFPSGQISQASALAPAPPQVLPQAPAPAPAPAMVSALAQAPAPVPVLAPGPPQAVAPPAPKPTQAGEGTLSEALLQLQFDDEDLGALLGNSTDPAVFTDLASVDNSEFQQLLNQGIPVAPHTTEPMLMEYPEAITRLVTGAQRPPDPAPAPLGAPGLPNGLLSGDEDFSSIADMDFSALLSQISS
substance,measurement,setting,value
IgkB promoter element 22-mer,Kd,[1],4 nM
same,Kd,[2],4 nM
